Columns and labels:
[1] = target: T1, C5aR transfected into CHEM-1 cells using the pHS vector (UniProt P21730 1-350); assay: binding
T1 chain: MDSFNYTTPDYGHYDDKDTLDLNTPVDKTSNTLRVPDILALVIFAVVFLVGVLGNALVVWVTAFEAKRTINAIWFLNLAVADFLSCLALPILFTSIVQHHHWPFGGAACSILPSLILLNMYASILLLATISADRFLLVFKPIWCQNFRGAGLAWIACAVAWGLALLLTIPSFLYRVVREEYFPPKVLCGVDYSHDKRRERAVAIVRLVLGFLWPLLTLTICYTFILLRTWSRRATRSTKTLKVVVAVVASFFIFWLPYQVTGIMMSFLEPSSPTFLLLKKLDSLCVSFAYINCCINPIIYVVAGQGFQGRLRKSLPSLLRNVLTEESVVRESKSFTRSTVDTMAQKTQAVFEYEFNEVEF

[2] = target: C5aR+Gα15/CHO; assay: binding; two sites, site 1
[3] = target: C5aR+Gα15/CHO; assay: binding; two sites, site 2

B1: C5a (ligand)
chain: TLQKKIEEIAAKYKHSVVKKCCYDGACVNNDETCEQRAARISLGPRCIKAFTECCVVASQLRANISHKDMQLGR
Ki [1]: 0.5 nM | Ki [2]: 0.6 nM | Ki [3]: 34 nM

— patent publication US20060141569A1 (published 2006)
